Measurements reported in patent US20250250357A1 (NANJING ZAIMING PHARMACEUTICAL, published 2025).

What was measured:
[1] = biological target: T1, human MSLN-FL-his protein (human, UniProt Q13421 296-580); experiment: ELISA, coated antigen, antibody 2 nM
T1 construct: Made in HEK293E cells, purified on nickel column; also called hMSLN-FL-his; human MSLN full-length protein; not shown: His tag

[2] = biological target: T2, human MSLN-R1-his protein (human, UniProt Q13421 296-390); experiment: ELISA, coated antigen, antibody 2 nM
T2 construct: Made in HEK293E cells, purified on nickel column; also called hMSLN-R1-his; human MSLN-R1 protein; not shown: His tag
T2 chain: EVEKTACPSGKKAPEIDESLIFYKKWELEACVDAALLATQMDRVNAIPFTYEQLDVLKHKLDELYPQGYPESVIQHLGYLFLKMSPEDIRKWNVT

[3] = biological target: T1, human MSLN-FL-his protein; experiment: ELISA, coated antigen, antibody 20 nM
Description: (§1) The plate was sealed with a plastic film and incubated at 4° C. overnight. The next day, the plate was washed twice with PBST, and a blocking buffer [PBS+2% (w/w) BSA] was added for blocking at room temperature for 2 h. The blocking buffer was discarded, and a chimeric antibody or negative control antibody serially diluted from 100 nM was added at 50 μL/well. After incubation at 37° C. for 2 h, the plate was washed 3 times with PBST. […] After incubation at 37° C. for 2 h, the plate was washed 5 times with PBST. A TMB substrate was added at 50 μL/well for incubation at room temperature for 5-10 min, and then a stop solution (1.0 N HCl) was added at 50 μL/well.

[4] = biological target: T2, human MSLN-R1-his protein; experiment: ELISA, coated antigen, antibody 20 nM
Description: as §1

[5] = biological target: T1, human MSLN-FL-his protein; experiment: ELISA, coated antigen, antibody 0.2 nM
Description: as §1

[6] = biological target: T1, human MSLN-FL-his protein; experiment: ELISA, coated antigen, antibody 200 nM
Description: as §1

[7] = biological target: T2, human MSLN-R1-his protein; experiment: ELISA, coated antigen, antibody 0.2 nM
Description: as §1

[8] = biological target: T2, human MSLN-R1-his protein; experiment: ELISA, coated antigen, antibody 200 nM
Description: as §1

[9] = biological target: T1, human MSLN-FL-his protein; experiment: ELISA, coated antigen, antibody 0.02 nM
Description: as §1

[10] = biological target: T2, human MSLN-R1-his protein; experiment: ELISA, coated antigen, antibody 0.02 nM
Description: as §1

[11] = biological target: T1, human MSLN-FL-his protein; experiment: ELISA, coated antigen, antibody 0.002 nM
Description: as §1

[12] = biological target: T2, human MSLN-R1-his protein; experiment: ELISA, coated antigen, antibody 0.002 nM
Description: as §1

[13] = biological target: T1, human MSLN-FL-his protein; experiment: ELISA, coated antigen, antibody 0.0002 nM
Description: as §1

[14] = biological target: T2, human MSLN-R1-his protein; experiment: ELISA, coated antigen, antibody 0.0002 nM
Description: as §1

[15] = biological target: T1, human MSLN-FL-his protein; experiment: ELISA, coated antigen, no antibody (blank)
[16] = biological target: T2, human MSLN-R1-his protein; experiment: ELISA, coated antigen, no antibody (blank)
Description: as §1

B1: S009-F7.41.18 chimeric antibody (antibody, human IgG1, kappa, V domains shown)
VH: QVQLQQPGTELVKPGASVKLSCKASDYTFTSYWMHWVKQRPGQGLEWIGSINPSNGDTYYNEKFKNKATLTVDKSSSTAYMQLSSLTSDDSAVYYCARGWYFDVWGTGTTVTVSS
VL: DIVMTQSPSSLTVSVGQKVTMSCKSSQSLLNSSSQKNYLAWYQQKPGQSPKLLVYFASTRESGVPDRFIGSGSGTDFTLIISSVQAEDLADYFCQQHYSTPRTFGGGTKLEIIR
notes: Human-murine chimeric antibody, human IgG1/kappa constant regions
- OD450 [1]: 2.26
- OD450 [2]: 0.06
- OD450 [3]: 2.24
- OD450 [4]: 0.07
- OD450 [5]: 2.04
- OD450 [6]: 2.3
- OD450 [7]: 0.06
- OD450 [8]: 0.09
- OD450 [9]: 1
- OD450 [10]: 0.05
- OD450 [11]: 0.25
- OD450 [12]: 0.06
- OD450 [13]: 0.08
- OD450 [14]: 0.06
- OD450 [15]: 0.06
- OD450 [16]: 0.06

B2: S009-F7.53.2 chimeric antibody (antibody, human IgG1, kappa, V domains shown)
VH: EVQLQQSGPELVKPGASVKIPCKTSGYTFTDYNMDWVKQSHGKSLEWIGDINPNTDGAIYNQKFQNKATLTVDKSSSTAYMELRSLTSEDTAVYYCTRRKLGRKFFDYWGQGTTLTVSS
VL: QIVLTQSPAIMSASPGEQVTMTCSASSSVGYMNWYQQKPGSSPRLLIYDTSNLASGVPVHFSGSGSGTSYSLTISRMEAAFAATYYCQQWYVYPYTFGGGTKLEIKR
notes: as for B1
- OD450 [1]: 2.1
- OD450 [2]: 0.05
- OD450 [3]: 2.2
- OD450 [4]: 0.05
- OD450 [5]: 1.53
- OD450 [6]: 2.6
- OD450 [7]: 0.04
- OD450 [8]: 0.07
- OD450 [9]: 0.47
- OD450 [10]: 0.04
- OD450 [11]: 0.12
- OD450 [12]: 0.05
- OD450 [13]: 0.06
- OD450 [14]: 0.05
- OD450 [15]: 0.06
- OD450 [16]: 0.06

B3: S009-F7.44.20 chimeric antibody (antibody, human IgG1, kappa, V domains shown)
VH: EVQLQQSGPELVKPGASVKIPCKASGYTFTDYNMDWVKQSHGKSLEWIGDINPSTGGTIYNQKFNGKATLTEDKSASTVYMEFRSLTSDDTAVYYCARRRIGTGYFDVWGTGTTVTVSS
VL: QIVLTQSPALMSASPGEKVTLTCSASSSVISSYLSWYQQKPGSSPKLLIYRTSNLASGVPARFSGSGSGTSYSLTISSMEAEDAASYFCHQWSSFPYTFGGGTKLEIKR
notes: as for B1
- OD450 [1]: 2.24
- OD450 [2]: 0.04
- OD450 [3]: 2.21
- OD450 [4]: 0.05
- OD450 [5]: 2.26
- OD450 [6]: 2.36
- OD450 [7]: 0.04
- OD450 [8]: 0.07
- OD450 [9]: 1.82
- OD450 [10]: 0.04
- OD450 [11]: 0.93
- OD450 [12]: 0.04
- OD450 [13]: 0.26
- OD450 [14]: 0.04
- OD450 [15]: 0.06
- OD450 [16]: 0.06

B4: S009-F7.61.21 chimeric antibody (antibody, human IgG1, kappa, V domains shown)
VH: DVQLQQSGPELVEPGASVRIPCKAAGHTFTDYNVDWVKQSHGQSLEWIGDVNPNTDGAIYNQKFEGKATLTVDTSSSTAYMELRSLTSEDTAVYFCARRRLGQGGFDSWGQGTTLTVSS
VL: QVVLTQSPAIMSASPGEKVTLTCGASSSLISKYLYWYQQKPGSSPKLWIYSTSNLASGVPARFSGSGSGTSYSLTISSMEAEDAASYFCHQWSSYPYTFGGGTKVEIKR
notes: as for B1
- OD450 [1]: 2.14
- OD450 [2]: 0.05
- OD450 [3]: 2.14
- OD450 [4]: 0.05
- OD450 [5]: 1.96
- OD450 [6]: 2.15
- OD450 [7]: 0.05
- OD450 [8]: 0.07
- OD450 [9]: 0.95
- OD450 [10]: 0.05
- OD450 [11]: 0.23
- OD450 [12]: 0.05
- OD450 [13]: 0.09
- OD450 [14]: 0.05
- OD450 [15]: 0.06
- OD450 [16]: 0.07

B5: S009-F7.48.1 chimeric antibody (antibody, human IgG1, kappa, V domains shown)
VH: QVQLQQPGTELVKPGASVKLSCKASGYTFTSYWMHWVKQRPGQGLEWIGNINPSNGGTNNNENFKSKATLTVDTSSSTAYMQLSSLTSEDSAVYYCVRNGYHGYWYFDVWGTGTTVTVSS
VL: DIVMTQSQKFMSTSVGDRVSVTCKASQNVGTNVAWYQQQPGQSPKALIYSASYRYSGVPDRFTGSVSGTDFTLTISNVQSEDLAEYFCQQYNSYPLTFGGGTKLEIKR
notes: as for B1
- OD450 [1]: 2.12
- OD450 [2]: 0.04
- OD450 [3]: 2.21
- OD450 [4]: 0.05
- OD450 [5]: 1.87
- OD450 [6]: 2.62
- OD450 [7]: 0.04
- OD450 [8]: 0.07
- OD450 [9]: 0.86
- OD450 [10]: 0.04
- OD450 [11]: 0.24
- OD450 [12]: 0.04
- OD450 [13]: 0.09
- OD450 [14]: 0.04
- OD450 [15]: 0.06
- OD450 [16]: 0.06
